Laboratory results taken from article PMC8319303, “MacroGreen, a simple tool for detection of ADP-ribosylated proteins” (Communications Biology, 2021).

B1: MacroGreen (Af1521-c007), Af1521 K35E,G42E,I144R,Y145R fused to GFP (other, Archaeoglobus fulgidus, UniProt O28751 1-192, looked up)
chain: MEVLFEAKVGDITLKLAQGDITQYPAKAIVNAANERLEHGGEVAYAIAKACAGDAGLYTEISKKAMREQFGRDYIDHGEVVVTPAMNLEERGIKYVFHTVGPICSGMWSEELKEKLYKAFLGPLEKAEEMGVESIAFPAVSAGRRGCDLEKVVETFLEAVKNFKGSAVKEVALVIYDRKSAEVALKVFERSL
notes: Archaeoglobus fulgidus macrodomain protein Af1521, full length, with K35E, G42E, I144R, Y145R; Synthetic codon-optimised cDNA in a pNIC28 derived vector; also called GFP-fusion quadruple mutant; source: E. coli BL21(DE3)T1R pRARE2, purified (IMAC, SEC); not shown: eGFP, C-terminal, kept

Columns and labels:
[1] = molecular target: T1, PARylated PARP1 (auto-modified catalytic domain construct) (UniProt P09874 662-1011, auto-poly-ADP-ribosylated (PARylated) predominantly on carboxylic acid side chains; sites not given); test: far-Western, overlay or dot blot; overlay in multiwell plates: MAR- or PARylated protein adsorbed to protein binding 96-well plates (MaxiSorp), blocked with 1% BSA, overlaid with the macrodomain-GFP fusion (1 µM in Fig. 2) in TBST pH 7.5 for 5 min at room temperature, washed, GFP fluorescence read; conditions: both partners purified
T1 construct: PARP1 catalytic domain construct, PARP1 662-1011; also called PARP1 662-1011; source: auto-modified with 1 mM NAD+
T1 sequence (P09874 662-1011): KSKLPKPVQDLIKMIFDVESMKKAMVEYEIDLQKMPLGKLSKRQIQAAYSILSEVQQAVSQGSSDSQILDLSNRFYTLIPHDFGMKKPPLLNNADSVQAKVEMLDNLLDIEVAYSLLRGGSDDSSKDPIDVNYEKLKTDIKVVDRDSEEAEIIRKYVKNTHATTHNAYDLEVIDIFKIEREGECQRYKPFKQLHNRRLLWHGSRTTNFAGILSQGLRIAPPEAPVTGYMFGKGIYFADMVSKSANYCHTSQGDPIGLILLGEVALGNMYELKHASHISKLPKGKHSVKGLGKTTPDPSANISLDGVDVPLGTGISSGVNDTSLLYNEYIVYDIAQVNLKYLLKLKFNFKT

[2] = molecular target: B1; test: SPR; MacroGreen covalently immobilised, auto-MARylated PARP10 catalytic domain flowed over; apparent KD from the kinetics of binding and unbinding; conditions: both partners purified

Row | binding result [1] | Kd [2] [nM] | stoichiometry N [2] | Binder
1 | binds | – | – | Af1521-c001, wild type Af1521 fused to GFP (other, Archaeoglobus fulgidus, UniProt O28751 1-192, looked up, Archaeoglobus fulgidus macrodomain protein Af1521, full length, wild type; pNIC28 derived vector; also called Af1521-GFP; wild type Af1521-GFP fusion; source: E. coli BL21(DE3)T1R pRARE2, purified (IMAC, SEC); not shown: eGFP, C-terminal, kept) MEVLFEAKVGDITLKLAQGDITQYPAKAIVNAANKRLEHGGGVAYAIAKACAGDAGLYTEISKKAMREQFGRDYIDHGEVVVTPAMNLEERGIKYVFHTVGPICSGMWSEELKEKLYKAFLGPLEKAEEMGVESIAFPAVSAGIYGCDLEKVVETFLEAVKNFKGSAVKEVALVIYDRKSAEVALKVFERSL
2 | binds | – | – | B1
3 | – | 30 | 1 | auto-MARylated PARP10 catalytic domain (domain or fragment, UniProt Q53GL7 819-1007, looked up, auto-mono-ADP-ribosylated (MARylated) on glutamic and aspartic acid, serine, lysine and arginine side chains; sites not given, PARP10 catalytic domain, construct PARP10 819-1007; also called PARP10 819-1007; source: auto-modified with NAD+) NLERLAENTGEFQEVVRAFYDTLDAARSSIRVVRVERVSHPLLQQQYELYRERLLQRCERRPVEQVLYHGTTAPAVPDICAHGFNRSFCGRNATVYGKGVYFARRASLSVQDRYSPPNADGHKAVFVARVLTGDYGQGRRGLRAPPLRGPGHVLLRYDSAVDCICQPSIFVIFHDTQALPTHLITCEHV
